These results are taken from article PMC2975657.

Several values for one entry are separate records, joined by “and”; a condition that tells them apart may be missing. Identical values can stand only once.

Assay [1] concerns the target protective antigen, proteolytically activated 63-kDa portion (PA63) (Bacillus anthracis). In words: native MS.
In assay [2] the target is Lethal factor LFN (Bacillus anthracis) (UniProt P15917). Particulars: cited from earlier work.
For assay [3], the target named is protective antigen, proteolytically activated 63-kDa portion (PA63) (Bacillus anthracis). In words: negative-stain electron microscopy.
The target of assay [4] is PA8(LFN)4 complex (octameric PA oligomer with four LFN) (Bacillus anthracis).
In assay [5] the target is PA7(LFN)3 complex (heptameric PA oligomer with three LFN) (Bacillus anthracis).
Assay [6] deals with PA8(LFN)4 complex (octameric PA oligomer with four LFN) (Bacillus anthracis). Put plainly: native MS.
Assay [7] deals with PA7(LFN)3 complex (heptameric PA oligomer with three LFN) (Bacillus anthracis). In words: native MS.

As to “LF's PA binding domain (LFN, the first 263 residues of LF) (domain or fragment)”, in assay [1], the stoichiometry N (LFN per PA2 intermediate) turned out to be 1, the stoichiometry N (LFN per PA4 intermediate) turned out to be 2, the stoichiometry N (LFN per PA7 oligomer) worked out at 3 and the stoichiometry N (LFN per PA8 oligomer) came to 4.
As for “Protective antigen (from UniProt P13423)”, the Kd in assay [2] is 1 nM.
As to “protective antigen, proteolytically activated 63-kDa portion (PA63) (domain or fragment)”, in assay [1], the stoichiometry N is 4 and 2; the stoichiometry N (PA63 per oligomer) is 8 and 7. Besides, the stoichiometry N (PA63 per oligomer) in assay [3] was 7 and 8.
On to “soluble monomeric ANTXR2 extracellular domain (msANTXR2), capillary morphogenesis protein 2 residues 40-217 (from UniProt P58335 40-217) (receptor)”, for which the pH midpoint of the prechannel-to-channel transition, CD signal at 222 nm, 37°C in assay [4] and in assay [5] was 5.8 pH in each case. Moreover, the stoichiometry N (msANTXR2 per PA8(LFN)4 complex) in assay [6] stood at 8. The same substance displayed a stoichiometry N (msANTXR2 per PA7(LFN)3 complex) in assay [7] of 7.
